Measurements taken from publication PMC7538601, “Low-Zone IL-2 Signaling: Fusion Proteins Containing Linked CD25 and IL-2 Domains Sustain Tolerogenic Vaccination in vivo and Promote Dominance of FOXP3^+ Tregs in vitro” (Frontiers in Immunology, 2020).

Columns and labels:
[1] = target: T1, Full length murine CD25 on HEK cells (mouse, UniProt P01590 22-268); assay: cell-based or functional assay
T1 sequence (looked up): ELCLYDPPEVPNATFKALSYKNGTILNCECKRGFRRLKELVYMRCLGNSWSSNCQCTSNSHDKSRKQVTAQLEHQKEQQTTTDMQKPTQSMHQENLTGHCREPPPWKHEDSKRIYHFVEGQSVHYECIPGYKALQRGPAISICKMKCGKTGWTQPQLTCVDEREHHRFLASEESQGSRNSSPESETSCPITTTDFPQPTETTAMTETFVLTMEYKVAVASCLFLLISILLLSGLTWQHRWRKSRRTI

[2] = target: the molecule itself; assay: SEC; Superdex 200 Increase 10/300 GL, 0.5 ml/min, 10 mM HEPES pH 7.3, 140 mM NaCl; 500 ul sample at 0.5 mg/ml; apparent molecular weights against Bio-Rad gel filtration standard

B1: CD25-IL2 fusion protein (other, mouse)
chain: ELCLYDPPEVPNATFKALSYKNGTILNCECKRGFRRLKELVYMRCLGNSWSSNCQCTSNSHDKSRKQVTAQLEHQKEQQTTTDMQKPTQSMHQENLTGHCREPPPWKHEDSKRIYHFVEGQSVHYECIPGYKALQRGPAISICKMKCGKTGWTQPQLTCVDEREHHRFLASEESQGSRNSSPESETSCPITTTDFPQPTETTAMTETFVLTMEYKGGGGSTRGGGGSTGGGGSGGGGSSAPTSSSTSSSTAEAQQQQQQQQQQQQHLEQLLMDLQELLSRMENYRNLKLPRMLTFKFYLPKQATELKDLQCLEDELGPLRHVLDLTQSKSFQLEDAENFISNIRVTVVKLKGSDNTFECQFDDESATVVDFLRRWIAFCQSIISTSPQ
notes: signal peptide in the construct; murine soluble CD25 (IL-2 receptor alpha chain), aa1-236 of NP_032393; 23-aa flexible linker; murine IL-2, aa20-169 of NP_032392; Glycosylated; about 70 kDa on SDS-PAGE, reducing and non-reducing; By SEC it runs as higher order multimers; also called CD25-IL2 FP; FP; source: HEK293F, stably transfected (pCMV), expression supernatant, purified (Ni-NTA); not shown: …
Which “proliferation ([3H]thymidine) of the IL-2 dependent mouse T cell line SJL-PLP.1; potency against mouse IL-2” value [1] does the source give for B1 here?
Its value is ~32 fold less potent than IL-2.

Does B1 bind [2]?
Result: binds

B2: IL2-CD25 fusion protein (other, mouse)
chain: APTSSSTSSSTAEAQQQQQQQQQQQQHLEQLLMDLQELLSRMENYRNLKLPRMLTFKFYLPKQATELKDLQCLEDELGPLRHVLDLTQSKSFQLEDAENFISNIRVTVVKLKGSDNTFECQFDDESATVVDFLRRWIAFCQSIISTSPQGGGGSTRGGGGSTGGGGSGGGGSELCLYDPPEVPNATFKALSYKNGTILNCECKRGFRRLKELVYMRCLGNSWSSNCQCTSNSHDKSRKQVTAQLEHQKEQQTTTDMQKPTQSMHQENLTGHCREPPPWKHEDSKRIYHFVEGQSVHYECIPGYKALQRGPAISICKMKCGKTGWTQPQLTCVDEREHHRFLASEESQGSRNSSPESETSCPITTTDFPQPTETTAMTETFVLTMEYK
notes: signal peptide in the construct; murine IL-2, aa1-169 of NP_032392; 23-aa flexible linker; murine soluble CD25 (IL-2 receptor alpha chain), aa22-236 of NP_032393; Glycosylated; about 70 kDa on SDS-PAGE, reducing and non-reducing; By SEC it runs as higher order multimers; also called IL2-CD25 FP; FP; source: HEK293F, stably transfected (pIRES AcGFP1), expression supernatant, purified (Ni-NTA); not …
With B2 as the binder, how does the “proliferation ([3H]thymidine) of the IL-2 dependent mouse T cell line SJL-PLP.1; potency against mouse IL-2” value [1] read?
Its value is ~320 fold less potent than IL-2.

Does B2 bind [2]?
Result: binds
